Target: DENV capsid protein (DENVC) (Dengue virus 2 strain 16681, UniProt O09234 1-100)
Assay: nephelometry (condensate formation); NaCl < 150 mM; diminished above; nonlabeled 25 mer
Conditions: protein: recombinant; chain copies: 2

Binder: GGACAGGAAUUAAUAGUAGCUGUCC (ssDNA, printed with U although named ssDNA; chemistry ambiguous) [ssDNASel25 (Sel25 DNA, 25 mer)]
- binding result: binds

Source: article PMC8397897
